This note sets out measurements from PMC1150889 (The EMBO Journal, 2005).

For the test, the target named is P22 tailspike protein gp9 (bacteriophage P22, UniProt P12528 1-667). The test can be described thus: cryo-EM structure.

B1: P22 tail accessory (head completion) protein gp4 (natural protein, bacteriophage P22, UniProt P26746 1-166, looked up)
chain: MQIKTKGDLVRAALRKLGVASDATLTDVEPQSMQDAVDDLEAMMAEWYQDGKGIITGYVFSDDENPPAEGDDHGLRSSAVSAVFHNLACRIAPDYALEATAKIIATAKYGKELLYKQTAISRAKRAPYPSRMPTGSGNSFANLNEWHYFPGEQNADSTTPHDEGNG
As to B1, the binding result is on record as “binds”.
